Reference: US10041047B2, “Compositions and methods for epithelial stem cell expansion and culture” (The Brigham and Women's Hospital, Inc., priority 2013, dated 2018)

Experiments:
[1] = test system: Lgr5+ stem cells in small intestinal crypts; assay: Small intestinal crypt culture from Lgr5-GFP mice in Matrigel: cell proliferation and Lgr5-GFP expression; assay type: cell-based, mouse; settings: for requirement of growth factor to maintain self-renewal of Lgr5+ stem cells: crypts 6 days in the CV condition (CHIR 3 μM, VPA 1 mM)
Procedure: Crypts and single Lgr5-GFP cells were isolated as previously described (Sato et al., 2009). Briefly, the proximal half of the small intestine was harvested, opened longitudinally, and washed with cold PBS to remove luminal content. The tissue was then cut into 2-4 mm pieces with scissors and further washed 5-10 times with cold PBS by pipetting up and down using a 10-ml pipette. Tissue fragments were incubated with 2 mM EDTA in PBS for 30 min on ice. After removal of EDTA, tissue fragments were washed with PBS to release crypts. Supernatant fractions enriched in crypts were collected, passed through a 70 μm cell strainer and centrifuged at 300 g for 5 minutes. The cell pellet was re-suspended with cell culture media without growth factors and centrifuged at 150 g to remove single cells. Crypts were then cultured or used for single cell isolation. To obtain single cells, crypts were incubated in culture medium for 45 minutes at 37° C. and triturated with a glass pipette. Dissociated cells were passed through 20 μm cell strainer, negative stained with propidium iodide and single viable GFP-high cells were sorted by flow cytometry (FACS Aria, BD) as previously described (Sato et al., 2009). Small intestinal crypts isolated from Lgr5-EGFP-ires-CreERT2 mice were embedded in Matrigel and cultured under conventional culture conditions in the presence of EGF, Noggin and R-spondin 1 (collectively referred to as ENR) leading to organoids with crypts and villus-like domains and GFP^+ cells at the crypt tips, consistent with previous reports (Sato et al., 2009). Isolated crypts or single cells were cultured as previously described (Sato et al., 2009) with minimal modification. Briefly, crypts or single cells were entrapped in Matrigel and plated at the center of wells in a 24-well plate. After polymerization of Matrigel (growth factor reduced; BD Bioscience), 500 μl of culture medium (Advanced DMEM/F12 (Life Technologies)) was added containing growth factors including EGF (50 ng/ml, Life Technologies), Noggin (100 ng/ml, Peprotech) and R-spondin 1 (500 ng/ml, R&D) and small molecules including CHIR99021 (3 μM, Stemgent) and Valproic Acid (1 mM, Sigma-Aldrich). For comparison of different culture conditions, small molecules or growth factors were added to freshly isolated crypts immediately after plating in Matrigel to test the ability to minimize potential differentiation of the ISC within the crypts and thus sustain crypt cultures. Cell culture media was changed every other day. For single cell culture, cells were embedded in Matrigel containing Jagged-1 peptide (1 μM; AnaSpec) and Y-27632 (10 μM; Tocris) was added for the first 2 days. Cells were passaged either as cell colonies as previously described (Sato et al., 2009) or as single cells. […]

[2] = test system: Lgr5+ stem/progenitor cells derived from the mouse inner ear; assay: Culture of inner ear (cochlear) Lgr5-GFP epithelial cells in Matrigel; assay type: cell-based; settings: 8 day cultures; added to EGF+CV or to the EGF+bFGF combination (FIG. 14D, 14E)
Source text: The same culture condition (EGF, Noggin, R-spondin1, or “ENR”) as used in Lgr5+ small intestinal stem cell cultures was first established.
Isolated organ of Corti from Lgr5-GFP mice were dissociated into single cells using accutase and cultured in multiple combinations of soluble factors and small molecules in Matrigel for 8 days. The resulting cultures were further dissociated into single cells and analyzed using FACS. […] In addition, the combination of EGF, bFGF and IGF-1 (designated as EFI) improved cell proliferation and GFP expression compared with the ENR condition (FIG. 14A-14C).
To further investigate the effects of individual growth factors when combined with CHIR and VPA, growth factors including Mitogenic growth factors (EGF, bFGF and IGF-1) as well as the Wnt agonist R-spondin 1 in combination with CHIR and VPA were tested.

B1: R-Spondin 2: agent that binds to the LGR5 receptor (protein, UniProt Q6UXX9 22-243, looked up)
R-spondin-2: QGNRWRRSKRASYVSNPICKGCLSCSKDNGCSRCQQKLFFFLRREGMRQYGECLHSCPSGYYGHRAPDMNRCARCRIENCDSCFSKDFCTKCKVGFYLHRGRCFDECPDGFAPLEETMECVEGCEVGHWSEWGTCSRNNRTCGFKWGLETRTRQIVKKPVKDTILCPTIAESRRCKMTMRHCPGGKRTPKAKEKRNKKKKRKLIERAQEQHSVFLATDRANQ
With B1 the “organoid formation (number of organoids formed at day 5)” value ([1]; ENR condition, R-spondin 2 compared to R-spondin 1 at multiple concentrations) was “better efficacy at lower concentrations”.

B2: Noggin: inhibitor of Bone Morphogenic Proteins (protein, UniProt Q13253 28-232, looked up)
Noggin: QHYLHIRPAPSDNLPLVDLIEHPDPIFDPKEKDLNETLLRSLLGGHYDPGFMATSPPEDRPGGGGGAAGGAEDLAELDQLLRQRPSGAMPSEIKGLEFSEGLAQGKKQRLSKKLRRKLQMWLWSQTFCPVLYAWNDLGSRFWPRYVKVGSCFSKRSCSVPEGMVCKPSKSVHLTVLRWRCQRRGGQRCGWIPIQYPIISECKCSC
In the case of B2, the “requirement of growth factor to maintain self-renewal of Lgr5+ stem cells” value [1] is reported as “still required”.

B3: Wnt3a: Wnt pathway activator protein (protein, UniProt P56704 19-352, looked up)
Protein Wnt-3a: SYPIWWSLAVGPQYSSLGSQPILCASIPGLVPKQLRFCRNYVEIMPSVAEGIKIGIQECQHQFRGRRWNCTTVHDSLAIFGPVLDKATRESAFVHAIASAGVAFAVTRSCAEGTAAICGCSSRHQGSPGKGWKWGGCSEDIEFGGMVSREFADARENRPDARSAMNRHNNEAGRQAIASHMHLKCKCHGLSGSCEVKTCWWSQPDFRAIGDFLKDKYDSASEMVVEKHRESRGWVETLRPRYTYFKVPTERDLVYYEASPNFCEPNPETGSFGTRDRTCNVSSHGIDGCDLLCCGRGHNARAERRREKCRCVFHWCCYVSCQECTRVYDVHTCK
In the case of B3, the “cell proliferation of crypt cells (organoid size and cell numbers)” value ([1]; crypts cultured 6 days, agent added to ENR condition, compared to ENR) is reported as “increased crypt proliferation”.

B4: R-spondin 1: agent that binds to the LGR5 receptor, Wnt agonist (protein, UniProt Q2MKA7 21-263, looked up)
R-spondin-1: SRGIKGKRQRRISAEGSQACAKGCELCSEVNGCLKCSPKLFILLERNDIRQVGVCLPSCPPGYFDARNPDMNKCIKCKIEHCEACFSHNFCTKCKEGLYLHKGRCYPACPEGSSAANGTMECSSPAQCEMSEWSPWGPCSKKQQLCGFRRGSEERTRRVLHAPVGDHAACSDTKETRRCTVRRVPCPEGQKRRKGGQGRRENANRNLARKESKEAGAGSRRRKGQQQQQQQGTVGPLTSAGPA
For B4, the “requirement of growth factor to maintain self-renewal of Lgr5+ stem cells” value [1] was “still required” and the “GFP expression on addition of a growth factor” value [2] was “slightly increased”.
